Results on eleven molecules are retold here after US20260210971A1 (Pfizer, published 2026).

By Kd is commonly meant the free concentration of one partner at which half of the binding sites on the other are occupied at equilibrium, for simple one-to-one binding. A word on the koff: it is the rate constant with which the complex falls apart. The kon is a measure of how fast the partners come together.

To fix the notation:
T1: DR3 on TF-1 cells (human, UniProt Q93038 25-417)
T1 sequence (looked up): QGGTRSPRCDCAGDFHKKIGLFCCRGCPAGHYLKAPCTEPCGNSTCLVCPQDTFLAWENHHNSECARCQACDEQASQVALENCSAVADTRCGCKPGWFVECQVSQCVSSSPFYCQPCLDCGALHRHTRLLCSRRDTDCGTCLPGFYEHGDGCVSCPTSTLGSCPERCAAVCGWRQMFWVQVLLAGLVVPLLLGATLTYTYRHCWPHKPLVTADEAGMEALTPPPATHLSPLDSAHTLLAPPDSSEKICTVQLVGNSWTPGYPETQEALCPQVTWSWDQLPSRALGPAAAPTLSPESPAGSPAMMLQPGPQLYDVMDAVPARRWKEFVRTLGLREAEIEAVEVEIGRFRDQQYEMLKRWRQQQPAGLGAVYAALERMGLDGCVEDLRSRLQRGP

T2: recombinant soluble cynomolgus monkey TL1A (cynomolgus monkey, UniProt O95150 72-251 (human entry))
T2 construct: also called cyno rsTL1A; cyno TL1A
T2 chain: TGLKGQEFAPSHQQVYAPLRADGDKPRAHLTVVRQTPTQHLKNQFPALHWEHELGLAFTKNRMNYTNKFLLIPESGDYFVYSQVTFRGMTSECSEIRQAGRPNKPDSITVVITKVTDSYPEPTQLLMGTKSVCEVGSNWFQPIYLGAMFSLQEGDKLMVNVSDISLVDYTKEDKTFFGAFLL

T3: endogenous TL1A of stimulated human peripheral blood (human, UniProt O95150 72-251, limits assumed)
T3 sequence (looked up): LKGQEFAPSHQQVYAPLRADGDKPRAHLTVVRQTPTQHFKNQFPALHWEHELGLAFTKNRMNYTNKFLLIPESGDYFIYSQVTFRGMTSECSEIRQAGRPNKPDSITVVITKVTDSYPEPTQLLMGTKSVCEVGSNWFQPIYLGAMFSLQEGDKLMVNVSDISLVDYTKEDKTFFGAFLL

T4: recombinant soluble murine TL1A (mouse, UniProt Q5UBV8 75-252)
T4 construct: also called murine rsTL1A; mouse TL1A
T4 chain: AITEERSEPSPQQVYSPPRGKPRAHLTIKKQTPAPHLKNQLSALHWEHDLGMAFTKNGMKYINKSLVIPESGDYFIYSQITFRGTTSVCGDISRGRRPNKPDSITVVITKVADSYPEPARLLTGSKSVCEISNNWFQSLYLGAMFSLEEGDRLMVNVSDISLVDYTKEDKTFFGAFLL

T5: recombinant soluble rat TL1A (rat, UniProt Q8K3Y7 76-252)
T5 construct: also called rat rsTL1A
T5 sequence: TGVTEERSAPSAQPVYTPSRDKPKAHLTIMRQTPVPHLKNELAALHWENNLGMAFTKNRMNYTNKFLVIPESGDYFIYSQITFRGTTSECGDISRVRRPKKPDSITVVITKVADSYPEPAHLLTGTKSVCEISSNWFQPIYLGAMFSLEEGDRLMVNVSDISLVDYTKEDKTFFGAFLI

T6: recombinant soluble rabbit TL1A (rabbit)
T6 construct: also called rabbit rsTL1A
T6 chain: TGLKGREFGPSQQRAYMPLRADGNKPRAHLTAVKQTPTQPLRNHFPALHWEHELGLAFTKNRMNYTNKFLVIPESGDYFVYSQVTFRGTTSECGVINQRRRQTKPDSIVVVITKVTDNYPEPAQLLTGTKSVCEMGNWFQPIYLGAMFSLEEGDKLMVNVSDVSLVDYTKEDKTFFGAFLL

B1: recombinant soluble human TL1A (ligand)
chain: ALKGQEFAPSHQQVYAPLRADGDKPRAHLTVVRQTPTQHFKNQFPALHWEHELGLAFTKNRMNYTNKFLLIPESGDYFIYSQVTFRGMTSECSEIRQAGRPNKPDSITVVITKVTDSYPEPTQLLMGTKSVCEVGSNWFQPIYLGAMFSLQEGDKLMVNVSDISLVDYTKEDKTFFGAFLL
B2: anti-TL1A antibody 26B11 (antibody, V domains shown)
VH: QVQLVESGGGVVQPGRSLRLSCAASGFTFSSFAMHWVRQAPGKGLEWVALIPFDGSSNYYADSVKGRFTISRDNSKNTLYLQMNSLRAEDTAVYYCARDRNYYGSGSFSFDAFDIWGQGTLVTVSS
VL: DIQMTQSPSSLSASVGDRVTITCRASQGISNWLAWYQQKPEKAPKSLIYAASSLQSGVPSRFSGSGSGTDFTLTISSLQPEDFATYYCQQYNSYPYTFGQGTKLEIKR
notes: also called 26B11-hIgG1-3m
B3: 1D1 1.27 (antibody, human IgG1, kappa, V domains shown)
VH: QVQLVQSGAEVKKPGASVKVSCKASGYDFTYYGISWVRQAPGQGLEWMGWISTYNGNTHYARMLQGRVTMTTDTSTRTAYMELRSLRSDDTAVYYCARENYYGSGSYRGGMDVWGQGTTVTVSS
VL: EIVLTQSPATLSLSPGERATLSCRASQSVSSYLAWYQQKPGQAPRLLIYDASNRATGIPARFSGSGSGTDFTLTISSLEPEDFAVYYCQQRSNWPWTFGQGTKVEIKR
notes: Expressed as IgG1
B4: 1D1 D37 (antibody, IgG1, V domains shown)
VH: B3 VH with D28S, N57G
VL: B3 VL
notes: same light chain as 1D1; also called 1D1-VH-37
B5: 1D1 with heavy chain mutation S28D (antibody, V domains shown)
VH: B3 VH with H59N
VL: EIVLTQSPATLSLSPGERATLSCRASQSVSSYLAWYQQKPGQAPRLLIYDASNRATGIPARFSGSGSGTDFTLTISSLEPEDFAVYYCQQRSNWPWTFGQGTKVEIK
notes: Point mutant of 1D1 CDR-H1
B6: 1D1 D38 (antibody, V domains shown)
VH: B3 VH with D28S, N57V
VL: B3 VL
notes: IgG with triple mutant Fc as for 1D1 D37
B7: 1D1 DH3 (antibody, V domains shown)
VH: B3 VH with D28S, R62Q
VL: B3 VL
notes: as for B6
B8: 1D1 with heavy chain mutation S28Q (antibody, V domains shown)
VH: B3 VH with D28Q, H59N
VL: B5 VL
notes: Point mutant of 1D1 CDR-H1
B9: 1D1 D39 (antibody, V domains shown)
VH: B3 VH with D28S, H59N, S106A, V113A
VL: B3 VL
notes: as for B6
B10: 1D1 D24 (antibody, V domains shown)
VH: B3 VH with D28S, T53P
VL: B3 VL
notes: as for B6
B11: anti-TL1A antibody 7D4 (antibody, human IgG1, kappa, V domains shown)
VH: QVQLVQSGAEVKKPGASVKVSCKASGYTFTSYGINWVRQAPGQGLEWMGWISTYNGNTNSAQKLQGRVTMTTDTSTSTAYMELRSLRSDDTAVYYCARAHSSSWFDAFDIWGQGTMVTVSS
VL: AIQLTQSPSSLSASVGDRVTITCRASQGISSALAWYQQKPGKAPKLLIYDASSLESGVPSRFSGSGSGTDFTLTISSLQPEDFATYYCQQFNSYPLTFGGGTKVEIKR
notes: Human IgG1-3m, kappa; also called 7D4-hIgG1-3m

Residue numbers refer to the chain shown, from its start. Like-named read-outs stand apart in the source and are kept apart here. A value given as a limit tells only on which side of the number the result lay.

The target of one experiment is T1, DR3 on TF-1 cells. Nature of the experiment: cell-based or functional assay.
The target in experiment [1] is B1. The experiment can be described thus: SPR, IgG captured on anti-hIgG, TL1A injected. For orientation: Surface plasmon resonance follows binding to a sensor surface in real time, without labels.
Source text: (§1) To characterize the binding kinetics of the anti-TL1A antibodies to TL1A by surface plasmon resonance, each anti-TL1A antibody was captured via directly immobilized anti-human IgG (GE Healthcare) onto a carboxymethylated dextran sensor chip surface (CM5) using a Biacore T100 or T200 instrument. Anti-human IgG was immobilized through amine coupling to densities of approximately 4,000-13,000 response units (RU). […] At the end of each cycle, the entire anti-human IgG (hIgG) surface was regenerated by a 30-second pulse of 3M MgCl₂ followed by two consecutive 15-second pulses of PBS-NET. All injections were performed at 25° C. at a collection rate of 10 Hz. All sensorgrams were double referenced by using both a control surface and buffer injections. Rate constants were determined by fitting the data to a 1:1 model in Biacore T100, T200 evaluation software v1.0, or BIAevaluation software v4.1.1 and the equation KD=kd/kₐ.
(§2) The anti-TL1A antibodies were captured onto immobilized anti-human Fc on a CM5 sensor chip on a Biacore T100 instrument. […] Rate constants shown in the table were determined by fitting to a 1:1 Langmuir binding model in BiaEvaluation v4.1.1 (fit lines shown in red). Data shown are the average and standard deviation of at least 3 independent surfaces between 2 experiments.
Experiment [2] has as its target T2, recombinant soluble cynomolgus monkey …. Nature of the experiment: SPR, IgG captured on anti-hIgG, TL1A injected.
Source text: as §1, §2
In experiment [3] the target is B1. Nature of the experiment: cell-based or functional assay.
The target in experiment [4] is T3, endogenous TL1A of stimulated human …. The experiment can be described thus: cell-based or functional assay.
Experiment [5] has as its target B1. Nature of the experiment: KinExA, equilibrium in solution. On the technique in general: A kinetic exclusion assay measures how much of one partner remains free in solution.
Procedure: This assay involves pre-incubating antibody: antigen mixtures in solution long enough to reach equilibrium before measuring the level of unbound antibody using a solid phase component. […] Beads were blocked for 1 hour with PBS plus 10 mg/ml bovine serum albumin (bovine serum albumin, Sigma) at room temperature before being diluted up to a total of 27 ml in PBS. […] For each titration series, a buffer sample and a sample of antibody alone were included. Each antibody: TL1A mixture was tumbled at room temperature for at least six hours to reach equilibrium and then each mixture was injected over the solid phase of TL1A-coated beads in the instrument flow cell. […] Beads were replenished between each sample. Binding signals of detected free antibody were converted to percentage of free, unbound antibody as measured by the antibody only sample and plotted versus each concentration of TL1A. For each antibody, the KD and ABC controlled curves were fit simultaneously using n-Curve Analysis software v3.1.4 to fit the curves to the ‘affinity, unknown ligand’ model and measure an equilibrium KD.
Solution-based kinetic exclusion assays (KinExA) were carried out as an orthogonal technique to measure equilibrium KD values.
In experiment [6] the target is T2, recombinant soluble cynomolgus monkey …. The experiment can be described thus: SPR, IgG captured on anti-hIgG, TL1A injected.
Experiment [7] concerns the target T4, recombinant soluble murine TL1A. The experiment can be described thus: SPR, IgG captured on anti-hIgG, TL1A injected.
Source text: (§3) The antibodies were captured via directly immobilized anti-human IgG (GE Healthcare) onto a carboxymethylated dextran sensor chip surface (CM5) using a Biacore T100 or T200 instrument. Anti-human IgG was immobilized through amine coupling to densities of approximately 4,000-13,000 response units (RU). […] At the end of each cycle, the entire anti-hIgG surface was regenerated by a 30-second pulse of 3M MgCl₂ followed by two consecutive 15-second pulses of PBS-NET. […] All injections were performed at 25° C. at a collection rate of 10 Hz. All sensorgrams were double referenced by using both a control surface and buffer injections. Rate constants were determined by fitting the data to a 1:1 model in Biacore T100, T200 evaluation software v1.0, or BIAevaluation software v4.1.1 and the equation KD=Kd/kₐ.
(§4) At the highest cytokine concentrations, the dissociation phase was sometimes extended to 60 minutes to achieve at least a 5% decrease in binding signal.
Experiment [8] deals with T5, recombinant soluble rat TL1A. Nature of the experiment: SPR, IgG captured on anti-hIgG, TL1A injected.
Source text: as §3, §4
Experiment [9] addresses T6, recombinant soluble rabbit TL1A. The experiment can be described thus: SPR, IgG captured on anti-hIgG, TL1A injected.
Source text: as §3, §4
Experiment [10] addresses B1. The experiment can be described thus: SPR, IgG captured on anti-hIgG, TL1A injected; off rate too slow to measure.
Experiment [11] concerns the target B1. The experiment can be described thus: SPR, IgG captured on anti-hIgG, TL1A injected. This is another data set of the same source.
Procedure: Biacore analysis was performed using T-200 biosensor, series S CM5 chips and approximately 4000 RU (response units) of an anti-human IgG (GE Healthcare), immobilized in 10 mM sodium acetate immobilization buffer at pH 5.0. Assay conditions were established to minimize the influence of mass transfer, avidity, and rebinding events, as described below. A blank immobilization was carried out on a separate flow cell for reference subtraction. The purified IgGs were diluted in running buffer (PBS, 300 mM sodium chloride, 3.2 mM ethylenediaminetetraacetic acid, 0.01% Tween20) and low levels (<30 RU) captured using a flow rate of 100 μl/min for 2 min, to reduce possible rebinding by the trimeric TL1A. […] Reference-subtracted sensorgrams for each concentration were analyzed using Biacore T-200 evaluation software (v1.0).
The target of experiment [12] is B1. The experiment can be described thus: SPR, IgG captured on anti-hIgG, TL1A injected. The source holds these as a separate data set.
Experiment [13] has as its target T2, recombinant soluble cynomolgus monkey …. Nature of the experiment: SPR, IgG captured on anti-hIgG, TL1A injected.
For experiment [14], the target named is T4, recombinant soluble murine TL1A. The experiment can be described thus: SPR, IgG captured on anti-hIgG, TL1A injected.
Experiment [15] deals with B1. The experiment can be described thus: binding test of the 1D1 point mutants, method not named.

Turning to B1, in the experiment with DR3 on TF-1 cells, the “NFκB-luciferase activity in TF-1-NFκB-luciferase cells, EC50” value came to 149 pM; the “NFκB-luciferase activity, EC50 in the absence of isotype control antibody” value is 103 pM; the “NFκB-luciferase activity, EC50 in the presence of isotype control antibody” value came out at 110 pM; the “caspase activity in TF-1 cells with cycloheximide, EC50” value was found to be 90 pM.

B2: in experiment [1], the Kd was 600 pM, the koff is 0.00011 s⁻¹ and the kon is 170000 M⁻¹ s⁻¹. In experiment [2], the Kd came to 36000 pM, the koff was 0.006 s⁻¹ and the kon amounted to 200000 M⁻¹ s⁻¹.

For the molecule B3, the “Caspase Assay, average IC50” value in [3] came to 70.2 pM. The “NFkB Assay, average IC50” value in [3] is 140 pM. In addition, the “HWB Assay, average IC50” value in experiment [4] worked out at 0.968 pM. Also, the Kd in [5] was 7.69 pM; in [6], 220 pM; in experiment [7] it was 1640 pM; in experiment [8] it was 10900 pM; in experiment [9], 478 pM; in [10] it was less than 100 pM. The koff is 8e-05 s⁻¹ in experiment [6], 0.00043 s⁻¹ in experiment [7], 0.0072 s⁻¹ in experiment [8] and 0.00014 s⁻¹ in experiment [9]. Besides, the kon in experiment [6] amounted to 390000 M⁻¹ s⁻¹; in experiment [7], 270000 M⁻¹ s⁻¹; in experiment [8], 670000 M⁻¹ s⁻¹; in experiment [9] it was 300000 M⁻¹ s⁻¹. In addition, the t1/2 in experiment [6] was determined as 141 min; in [7], 26.9 min; in experiment [8] it was 1.6 min; in [9], 82.1 min.

On to B4, for which the Kd in experiment [11] was 326 pM; in experiment [12], 305 pM; in experiment [13] it was 335 pM; in experiment [14] it was 787 pM. The dissociation rate constant (koff) in experiment [11] was determined as 0.00035 s⁻¹. Further, the kon in experiment [11] is 1.26e+06 M⁻¹ s⁻¹.

For the molecule B5, in experiment [15], the Kd came out at 420 pM.

For B6, the Kd in [11] was found to be 440 pM; in experiment [12], 687 pM; in [13], 611 pM; in [14], 1290 pM. The koff in experiment [11] was 0.000463 s⁻¹. Also, the kon in experiment [11] was 1.05e+06 M⁻¹ s⁻¹.

With B7, the dissociation constant Kd was 412 pM in experiment [11], 560 pM in [12], 675 pM in [13] and 620 pM in experiment [14]. Also, in experiment [11], the koff is 0.00102 s⁻¹. The kon in experiment [11] stood at 2.49e+06 M⁻¹ s⁻¹.

As for B8, the Kd in experiment [15] stood at 6800 pM.

For the molecule B9, the Kd in [11] is 442 pM; in [12], 441 pM; in experiment [13], 396 pM; in experiment [14], 613 pM. Besides, the koff in [11] came to 0.000355 s⁻¹. Further, the kon in [11] came out at 784000 M⁻¹ s⁻¹.

Turning to B10, the Kd was determined as 394 pM in [11], 932 pM in [12], 942 pM in [13] and 804 pM in experiment [14]. Also, in experiment [11], the koff came out at 0.000806 s⁻¹. For the same molecule, the kon in experiment [11] was 2.04e+06 M⁻¹ s⁻¹.

Consider B11, for which, in experiment [1], the Kd worked out at 900 pM, the koff is 0.0004 s⁻¹ and the kon was 400000 M⁻¹ s⁻¹. Also, in [2], the Kd is 6900 pM, the koff is 0.0014 s⁻¹ and the kon was 200000 M⁻¹ s⁻¹.
